Target: rmSiglec1-mFc (mouse, UniProt Q62230 20-1639)
Assay: SPR

Sequence of rmSiglec1-mFc (Q62230 20-1639): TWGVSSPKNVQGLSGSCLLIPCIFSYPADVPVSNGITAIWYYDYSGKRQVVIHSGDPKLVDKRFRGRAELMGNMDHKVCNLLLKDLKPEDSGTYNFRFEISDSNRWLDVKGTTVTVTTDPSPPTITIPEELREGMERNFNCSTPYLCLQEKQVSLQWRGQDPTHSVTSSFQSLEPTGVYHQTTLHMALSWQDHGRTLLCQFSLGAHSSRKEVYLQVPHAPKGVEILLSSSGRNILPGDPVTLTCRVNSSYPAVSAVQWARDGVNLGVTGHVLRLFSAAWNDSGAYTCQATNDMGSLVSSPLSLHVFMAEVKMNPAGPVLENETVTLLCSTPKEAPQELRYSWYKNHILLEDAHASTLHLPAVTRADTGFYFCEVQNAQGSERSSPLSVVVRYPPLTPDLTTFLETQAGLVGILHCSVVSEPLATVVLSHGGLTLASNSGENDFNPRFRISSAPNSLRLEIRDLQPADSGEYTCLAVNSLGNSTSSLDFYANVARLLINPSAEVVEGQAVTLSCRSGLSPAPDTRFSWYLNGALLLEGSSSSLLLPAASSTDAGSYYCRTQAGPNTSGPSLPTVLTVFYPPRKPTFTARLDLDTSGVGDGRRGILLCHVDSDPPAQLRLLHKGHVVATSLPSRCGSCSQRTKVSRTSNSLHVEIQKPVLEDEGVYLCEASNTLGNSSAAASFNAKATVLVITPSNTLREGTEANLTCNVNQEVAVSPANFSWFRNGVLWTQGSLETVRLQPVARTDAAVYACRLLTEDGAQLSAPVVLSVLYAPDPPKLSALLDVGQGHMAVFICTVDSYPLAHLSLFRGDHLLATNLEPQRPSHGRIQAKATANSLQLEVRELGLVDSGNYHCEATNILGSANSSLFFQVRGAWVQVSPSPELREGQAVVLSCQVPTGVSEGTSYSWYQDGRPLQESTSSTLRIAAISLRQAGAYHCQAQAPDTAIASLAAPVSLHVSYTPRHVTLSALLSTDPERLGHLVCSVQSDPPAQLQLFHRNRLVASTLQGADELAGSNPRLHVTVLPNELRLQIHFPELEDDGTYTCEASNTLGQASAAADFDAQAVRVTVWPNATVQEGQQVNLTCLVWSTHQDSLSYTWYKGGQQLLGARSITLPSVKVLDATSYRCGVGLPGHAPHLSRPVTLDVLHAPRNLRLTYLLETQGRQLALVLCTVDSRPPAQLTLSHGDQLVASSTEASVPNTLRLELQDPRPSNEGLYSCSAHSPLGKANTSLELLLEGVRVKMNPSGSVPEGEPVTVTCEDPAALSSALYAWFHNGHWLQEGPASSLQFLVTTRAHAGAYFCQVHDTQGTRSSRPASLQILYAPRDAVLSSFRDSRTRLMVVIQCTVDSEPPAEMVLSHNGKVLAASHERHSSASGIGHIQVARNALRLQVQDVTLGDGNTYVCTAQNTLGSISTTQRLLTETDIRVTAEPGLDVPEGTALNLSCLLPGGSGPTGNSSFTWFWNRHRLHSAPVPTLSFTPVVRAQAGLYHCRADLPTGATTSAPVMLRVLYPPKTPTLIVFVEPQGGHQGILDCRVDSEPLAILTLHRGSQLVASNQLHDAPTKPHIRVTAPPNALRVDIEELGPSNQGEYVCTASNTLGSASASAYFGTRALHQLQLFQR

Kd: 107 nM
B1: rmCD43-hFc (Fc fusion, mouse, UniProt P15702 20-248, looked up)
chain: DSLQRTTMLPSTPHITAPSTSEAQNASPSVSVGSGTVDSKETISPWGQTTIPVSLTPLETTELSSLETSAGASMSTPVPEPTASQEVSSKTSALLPEPSNVASDPPVTAANPVTDGPAANPVTDGTAASTSISKGTSAPPTTVTTSSNETSGPSVATTVSSKTSGPPVTTATGSLGPSSEMHGLPATTATSSVESSSVARGTSVSSRKTSTTSTQDPITTRSPSQESSG

— publication PMC10388275 (Haematologica, 2023)
